The series addresses epidermal growth factor receptor (EGFR).

B1: protein-tyrosine phosphatase 1b (PTP1b) (protein)
chain: MEMEKEFEQIDKSGSWAAIYQDIRHEASDFPCRVAKLPKNKNRNRYRDVSPFDHSRIKLHQEDNDYINASLIKMEEAQRSYILTQGPLPNTCGHFWEMVWEQKSRGVVMLNRVMEKGSLKCAQYWPQKEEKEMIFEDTNLKLTLISEDIKSYYTVRQLELENLTTQETREILHFHYTTWPDFGVPESPASFLNFLFKVRESGSLSPEHGPVVVHCSAGIGRSGTFCLADTCLLLMDKRKDPSSVDIKKVLLEMRKFRMGLIQTADQLRFSYLAVIEGAKFIMGDSSVQDQWKELSHEDLEPPPEHIPPPPRPPKRILEPHNGKCREFFPNHQWVKEETQEDKDCPIKEEKGSPLNAAPYGIESMSQDTEVRSRVVGGSLRGAQAASPAKGEPSLPEKDEDHALSYWKPFLVNMCVATVLTAGAYLCYRFLFNSNT
B1: the “EGFR Y1173 phosphorylation (semi-quantitative Western blot)” value was “inhibition of PTP1b increased EGFR Y1173 phosphorylation in GFP control cells treated with 0.25 nM EGF”.

For the origin of these results see US20190137501.
